Experimental data from patent US20210087281A1 (AGOMAB THERAPEUTICS, published 2021).

Columns and labels:
Experiment in all cases: cell-based or functional assay
[1] = target: T1, native mouse MET on living cells (mouse, UniProt P16056 25-1379)
[2] = target: T1, native mouse MET on living cells; remark: listed apart in the source
[3] = target: T1, native mouse MET on living cells; remark: listed apart in the source
[4] = target: T1, native mouse MET on living cells; remark: listed apart in the source

B1: recombinant mouse HGF (R&D Systems) (ligand, UniProt Q08048 33-728, looked up)
chain: QKKRRNTLHEFKKSAKTTLTKEDPLLKIKTKKVNSADECANRCIRNRGFTFTCKAFVFDKSRKRCYWYPFNSMSSGVKKGFGHEFDLYENKDYIRNCIIGKGGSYKGTVSITKSGIKCQPWNSMIPHEHSFLPSSYRGKDLQENYCRNPRGEEGGPWCFTSNPEVRYEVCDIPQCSEVECMTCNGESYRGPMDHTESGKTCQRWDQQTPHRHKFLPERYPDKGFDDNYCRNPDGKPRPWCYTLDPDTPWEYCAIKTCAHSAVNETDVPMETTECIQGQGEGYRGTSNTIWNGIPCQRWDSQYPHKHDITPENFKCKDLRENYCRNPDGAESPWCFTTDPNIRVGYCSQIPKCDVSSGQDCYRGNGKNYMGNLSKTRSGLTCSMWDKNMEDLHRHIFWEPDASKLNKNYCRNPDDDAHGPWCYTGNPLIPWDYCPISRCEGDTTPTIVNLDHPVISCAKTKQLRVVNGIPTQTTVGWMVSLKYRNKHICGGSLIKESWVLTARQCFPARNKDLKDYEAWLGIHDVHERGEEKRKQILNISQLVYGPEGSDLVLLKLARPAILDNFVSTIDLPSYGCTIPEKTTCSIYGWGYTGLINADGLLRVAHLYIMGNEKCSQHHQGKVTLNESELCAGAEKIGSGPCEGDYGGPLICEQHKMRMVLGVIVPGRGCAIPNRPGIFVRVAYYAKWIHKVILTYKL
modifications: biotinylated at the N-terminus using NHS-LC-biotin (in the competition ELISAs only)
phospho-MET ELISA EC50, MLP29 cells [1]: 0.23 nM | phospho-MET ELISA EMAX (% HGF activity), MLP29 cells [1]: 100% | scatter score 0-4, MLP29, 0.001 nM [2]: 0 score | scatter score 0-4, MLP29, 0.004 nM [2]: 1 score | scatter score 0-4, MLP29, 0.012 nM [2]: 2 score | scatter score 0-4, MLP29, 0.037 nM [2]: 3 score | scatter score 0-4, MLP29, 0.111 nM [2]: 4 score | scatter score 0-4, MLP29, 0.333 nM [2]: 4 score | scatter score 0-4, MLP29, 1.000 nM [2]: 4 score | scatter score 0-4, MLP29, 3.000 nM [2]: 4 score | scatter score 0-4, MLP29, 9.000 nM [2]: 4 score | protection from staurosporine, viability EC50, MLP29 cells [3]: 5.35 nM | protection from staurosporine, viability EMAX, MLP29 cells [3]: 58.6% | branches per spheroid, MLP29 cells, 0.5 nM [4]: 32.3 branches | branches per spheroid, MLP29 cells, 2.5 nM [4]: 43.7 branches | branches per spheroid, MLP29 cells, 12.5 nM [4]: 36 branches
